Here are results for seven molecules from patent US20180071366A1.

The target of experiment [1] is recombinant human calcitonin receptor (hCT-R) (human), P30988. As to the kind of experiment: cell-based or functional assay.
Experiment [2] addresses recombinant human amylin 3 receptor (hAMYR3) (human), P30988. The experiment is described as follows: cell-based or functional assay.

Numbered stars: 1 amine (or outer) side, 2 acyl side, 3 side chain; on linkers, the order of the positions; unused ones are H or OH. Bridge positions count the residues as written; N and C are the ends. Square brackets hold non-standard residues; d marks the D form. * marks the point of attachment. C20 diacid = O=C(O)CCCCCCCCCCCCCCCCCCC(=O)*; γGlu = O=C(O)[C@H](CCC(=O)[*:2])N[*:1]; Hyp = O=C(O)[C@@H]1C[C@@H](O)CN1; NMeI = CC[C@H](C)[C@H](NC)C(=O)O; Aad = N[C@@H](CCCC(=O)O)C(=O)O; Orn = NCCC[C@H](N)C(=O)O; Dab = NCC[C@H](N)C(=O)O; Dap = NC[C@H](N)C(=O)O; Sar = CNCC(=O)O

Chain of recombinant human calcitonin receptor (hCT-R) (human), P30988 (P30988 25-474): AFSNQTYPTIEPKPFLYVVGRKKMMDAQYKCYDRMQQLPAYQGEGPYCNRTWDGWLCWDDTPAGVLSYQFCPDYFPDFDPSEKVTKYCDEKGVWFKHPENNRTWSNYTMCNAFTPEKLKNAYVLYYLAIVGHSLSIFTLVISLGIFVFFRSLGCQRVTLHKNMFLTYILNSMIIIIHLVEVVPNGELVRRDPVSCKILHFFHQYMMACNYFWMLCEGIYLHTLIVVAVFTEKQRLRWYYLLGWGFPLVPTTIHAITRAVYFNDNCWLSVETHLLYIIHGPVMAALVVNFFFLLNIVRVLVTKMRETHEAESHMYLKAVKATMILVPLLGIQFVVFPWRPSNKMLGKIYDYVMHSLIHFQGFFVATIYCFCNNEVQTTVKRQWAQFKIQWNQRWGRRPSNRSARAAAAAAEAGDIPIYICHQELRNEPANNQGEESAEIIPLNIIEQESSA
Chain of recombinant human amylin 3 receptor (hAMYR3) (human), P30988 (P30988 25-474, chain 1 of 2): as the sequence (P30988 25-474) above
Chain of recombinant human amylin 3 receptor (hAMYR3) (human), P30988 (O60896 24-148, chain 2 of 2, further chain): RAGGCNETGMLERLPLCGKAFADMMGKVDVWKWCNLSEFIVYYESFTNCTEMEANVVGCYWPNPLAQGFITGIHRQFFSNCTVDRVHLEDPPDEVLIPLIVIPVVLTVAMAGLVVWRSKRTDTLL

B1: Compound 45 (peptide)
peptide: {C20 diacid-γGlu}-R[Dap]GTATDATERLAHFLQRSSF[Sar]A[NMeI]LSSTEVGSNT[Hyp]-NH2
modifications: lactam 2-7
SMILES: CC[C@H](C)[C@@H](C(=O)N[C@@H](CC(C)C)C(=O)N[C@@H](CO)C(=O)N[C@@H](CO)C(=O)N[C@H](C(=O)N[C@@H](CCC(=O)O)C(=O)N[C@H](C(=O)NCC(=O)N[C@@H](CO)C(=O)N[C@@H](CC(N)=O)C(=O)N[C@H](C(=O)N1C[C@H](O)C[C@H]1C(N)=O)[C@@H](C)O)C(C)C)[C@@H](C)O)N(C)C(=O)[C@H](C)NC(=O)CN(C)C(=O)[C@H](Cc1ccccc1)NC(=O)[C@H](CO)NC(=O)[C@H](CO)NC(=O)[C@H](CCCNC(=N)N)NC(=O)[C@H](CCC(N)=O)NC(=O)[C@H](CC(C)C)NC(=O)[C@H](Cc1ccccc1)NC(=O)[C@H](Cc1c[nH]cn1)NC(=O)[C@H](C)NC(=O)[C@H](CC(C)C)NC(=O)[C@H](CCCNC(=N)N)NC(=O)[C@H](CCC(=O)O)NC(=O)[C@@H](NC(=O)[C@H](C)NC(=O)[C@@H]1CC(=O)NC[C@H](NC(=O)[C@H](CCCNC(=N)N)NC(=O)CC[C@H](NC(=O)CCCCCCCCCCCCCCCCCCC(=O)O)C(=O)O)C(=O)NCC(=O)N[C@@H]([C@@H](C)O)C(=O)N[C@@H](C)C(=O)N[C@@H]([C@@H](C)O)C(=O)N1)[C@@H](C)O
As to B1, the hCT-R EC50 [nM] (cAMP formation, 1321N1 cells expressing hCT-R) in experiment [1] was 299 nM. Also, in experiment [2], the hAMYR3 EC50 [nM] (cAMP formation, 1321N1 cells expressing hAMYR3) came out at 279 nM.

B2: Compound 42 (peptide)
peptide: {C20 diacid-γGlu}-RDGTATKATQRLADFLQRSSF[Sar]A[NMeI]LSSTETGSNT[Hyp]-NH2
modifications: lactam 2-7
SMILES: CC[C@H](C)[C@@H](C(=O)N[C@@H](CC(C)C)C(=O)N[C@@H](CO)C(=O)N[C@@H](CO)C(=O)N[C@H](C(=O)N[C@@H](CCC(=O)O)C(=O)N[C@H](C(=O)NCC(=O)N[C@@H](CO)C(=O)N[C@@H](CC(N)=O)C(=O)N[C@H](C(=O)N1C[C@H](O)C[C@H]1C(N)=O)[C@@H](C)O)[C@@H](C)O)[C@@H](C)O)N(C)C(=O)[C@H](C)NC(=O)CN(C)C(=O)[C@H](Cc1ccccc1)NC(=O)[C@H](CO)NC(=O)[C@H](CO)NC(=O)[C@H](CCCNC(=N)N)NC(=O)[C@H](CCC(N)=O)NC(=O)[C@H](CC(C)C)NC(=O)[C@H](Cc1ccccc1)NC(=O)[C@H](CC(=O)O)NC(=O)[C@H](C)NC(=O)[C@H](CC(C)C)NC(=O)[C@H](CCCNC(=N)N)NC(=O)[C@H](CCC(N)=O)NC(=O)[C@@H](NC(=O)[C@H](C)NC(=O)[C@@H]1CCCCNC(=O)C[C@H](NC(=O)[C@H](CCCNC(=N)N)NC(=O)CC[C@H](NC(=O)CCCCCCCCCCCCCCCCCCC(=O)O)C(=O)O)C(=O)NCC(=O)N[C@@H]([C@@H](C)O)C(=O)N[C@@H](C)C(=O)N[C@@H]([C@@H](C)O)C(=O)N1)[C@@H](C)O
As for B2, the hCT-R EC50 [nM] (cAMP formation, 1321N1 cells expressing hCT-R) in experiment [1] was determined as 0.006 nM. Besides, the hAMYR3 EC50 [nM] (cAMP formation, 1321N1 cells expressing hAMYR3) in experiment [2] came out at 0.003 nM.

B3: Compound 43 (peptide)
peptide: {C20 diacid-γGlu}-KDGTATKATQRLANFLQRSSF[Sar]A[NMeI]LSSTEVGSNT[Hyp]-NH2
modifications: lactam 2-7
SMILES: CC[C@H](C)[C@@H](C(=O)N[C@@H](CC(C)C)C(=O)N[C@@H](CO)C(=O)N[C@@H](CO)C(=O)N[C@H](C(=O)N[C@@H](CCC(=O)O)C(=O)N[C@H](C(=O)NCC(=O)N[C@@H](CO)C(=O)N[C@@H](CC(N)=O)C(=O)N[C@H](C(=O)N1C[C@H](O)C[C@H]1C(N)=O)[C@@H](C)O)C(C)C)[C@@H](C)O)N(C)C(=O)[C@H](C)NC(=O)CN(C)C(=O)[C@H](Cc1ccccc1)NC(=O)[C@H](CO)NC(=O)[C@H](CO)NC(=O)[C@H](CCCNC(=N)N)NC(=O)[C@H](CCC(N)=O)NC(=O)[C@H](CC(C)C)NC(=O)[C@H](Cc1ccccc1)NC(=O)[C@H](CC(N)=O)NC(=O)[C@H](C)NC(=O)[C@H](CC(C)C)NC(=O)[C@H](CCCNC(=N)N)NC(=O)[C@H](CCC(N)=O)NC(=O)[C@@H](NC(=O)[C@H](C)NC(=O)[C@@H]1CCCCNC(=O)C[C@H](NC(=O)[C@H](CCCCN)NC(=O)CC[C@H](NC(=O)CCCCCCCCCCCCCCCCCCC(=O)O)C(=O)O)C(=O)NCC(=O)N[C@@H]([C@@H](C)O)C(=O)N[C@@H](C)C(=O)N[C@@H]([C@@H](C)O)C(=O)N1)[C@@H](C)O
For B3, the hCT-R EC50 [nM] (cAMP formation, 1321N1 cells expressing hCT-R) in experiment [1] was determined as 0.021 nM. Also, in experiment [2], the hAMYR3 EC50 [nM] (cAMP formation, 1321N1 cells expressing hAMYR3) was determined as 0.007 nM.

B4: Compound 47 (peptide)
peptide: {C20 diacid-γGlu}-R[Orn]GTATDATERLAHFLQRSSF[Sar]A[NMeI]LSSTEVGSNT[Hyp]-NH2
modifications: lactam 2-7
SMILES: CC[C@H](C)[C@@H](C(=O)N[C@@H](CC(C)C)C(=O)N[C@@H](CO)C(=O)N[C@@H](CO)C(=O)N[C@H](C(=O)N[C@@H](CCC(=O)O)C(=O)N[C@H](C(=O)NCC(=O)N[C@@H](CO)C(=O)N[C@@H](CC(N)=O)C(=O)N[C@H](C(=O)N1C[C@H](O)C[C@H]1C(N)=O)[C@@H](C)O)C(C)C)[C@@H](C)O)N(C)C(=O)[C@H](C)NC(=O)CN(C)C(=O)[C@H](Cc1ccccc1)NC(=O)[C@H](CO)NC(=O)[C@H](CO)NC(=O)[C@H](CCCNC(=N)N)NC(=O)[C@H](CCC(N)=O)NC(=O)[C@H](CC(C)C)NC(=O)[C@H](Cc1ccccc1)NC(=O)[C@H](Cc1c[nH]cn1)NC(=O)[C@H](C)NC(=O)[C@H](CC(C)C)NC(=O)[C@H](CCCNC(=N)N)NC(=O)[C@H](CCC(=O)O)NC(=O)[C@@H](NC(=O)[C@H](C)NC(=O)[C@@H]1CC(=O)NCCC[C@H](NC(=O)[C@H](CCCNC(=N)N)NC(=O)CC[C@H](NC(=O)CCCCCCCCCCCCCCCCCCC(=O)O)C(=O)O)C(=O)NCC(=O)N[C@@H]([C@@H](C)O)C(=O)N[C@@H](C)C(=O)N[C@@H]([C@@H](C)O)C(=O)N1)[C@@H](C)O
Consider B4, for which the hCT-R EC50 [nM] (cAMP formation, 1321N1 cells expressing hCT-R) in experiment [1] worked out at 10.8 nM. Also, in experiment [2], the hAMYR3 EC50 [nM] (cAMP formation, 1321N1 cells expressing hAMYR3) came out at 7.7 nM.

B5: Compound 48 (peptide)
peptide: {C20 diacid-γGlu}-R[Dap]GTAT[Aad]ATERLAHFLQRSSF[Sar]A[NMeI]LSSTEVGSNT[Hyp]-NH2
modifications: lactam 2-7
SMILES: CC[C@H](C)[C@@H](C(=O)N[C@@H](CC(C)C)C(=O)N[C@@H](CO)C(=O)N[C@@H](CO)C(=O)N[C@H](C(=O)N[C@@H](CCC(=O)O)C(=O)N[C@H](C(=O)NCC(=O)N[C@@H](CO)C(=O)N[C@@H](CC(N)=O)C(=O)N[C@H](C(=O)N1C[C@H](O)C[C@H]1C(N)=O)[C@@H](C)O)C(C)C)[C@@H](C)O)N(C)C(=O)[C@H](C)NC(=O)CN(C)C(=O)[C@H](Cc1ccccc1)NC(=O)[C@H](CO)NC(=O)[C@H](CO)NC(=O)[C@H](CCCNC(=N)N)NC(=O)[C@H](CCC(N)=O)NC(=O)[C@H](CC(C)C)NC(=O)[C@H](Cc1ccccc1)NC(=O)[C@H](Cc1c[nH]cn1)NC(=O)[C@H](C)NC(=O)[C@H](CC(C)C)NC(=O)[C@H](CCCNC(=N)N)NC(=O)[C@H](CCC(=O)O)NC(=O)[C@@H](NC(=O)[C@H](C)NC(=O)[C@@H]1CCCC(=O)NC[C@H](NC(=O)[C@H](CCCNC(=N)N)NC(=O)CC[C@H](NC(=O)CCCCCCCCCCCCCCCCCCC(=O)O)C(=O)O)C(=O)NCC(=O)N[C@@H]([C@@H](C)O)C(=O)N[C@@H](C)C(=O)N[C@@H]([C@@H](C)O)C(=O)N1)[C@@H](C)O
As for B5, in experiment [1], the hCT-R EC50 [nM] (cAMP formation, 1321N1 cells expressing hCT-R) is 0.107 nM. Moreover, the hAMYR3 EC50 [nM] (cAMP formation, 1321N1 cells expressing hAMYR3) in experiment [2] turned out to be 0.02 nM.

B6: Compound 46 (peptide)
peptide: {C20 diacid-γGlu}-R[Dab]GTATDATERLAHFLQRSSF[Sar]A[NMeI]LSSTEVGSNT[Hyp]-NH2
modifications: lactam 2-7
SMILES: CC[C@H](C)[C@@H](C(=O)N[C@@H](CC(C)C)C(=O)N[C@@H](CO)C(=O)N[C@@H](CO)C(=O)N[C@H](C(=O)N[C@@H](CCC(=O)O)C(=O)N[C@H](C(=O)NCC(=O)N[C@@H](CO)C(=O)N[C@@H](CC(N)=O)C(=O)N[C@H](C(=O)N1C[C@H](O)C[C@H]1C(N)=O)[C@@H](C)O)C(C)C)[C@@H](C)O)N(C)C(=O)[C@H](C)NC(=O)CN(C)C(=O)[C@H](Cc1ccccc1)NC(=O)[C@H](CO)NC(=O)[C@H](CO)NC(=O)[C@H](CCCNC(=N)N)NC(=O)[C@H](CCC(N)=O)NC(=O)[C@H](CC(C)C)NC(=O)[C@H](Cc1ccccc1)NC(=O)[C@H](Cc1c[nH]cn1)NC(=O)[C@H](C)NC(=O)[C@H](CC(C)C)NC(=O)[C@H](CCCNC(=N)N)NC(=O)[C@H](CCC(=O)O)NC(=O)[C@@H](NC(=O)[C@H](C)NC(=O)[C@@H]1CC(=O)NCC[C@H](NC(=O)[C@H](CCCNC(=N)N)NC(=O)CC[C@H](NC(=O)CCCCCCCCCCCCCCCCCCC(=O)O)C(=O)O)C(=O)NCC(=O)N[C@@H]([C@@H](C)O)C(=O)N[C@@H](C)C(=O)N[C@@H]([C@@H](C)O)C(=O)N1)[C@@H](C)O
In the case of B6, in experiment [1], the hCT-R EC50 [nM] (cAMP formation, 1321N1 cells expressing hCT-R) turned out to be 7.5 nM. Also, in experiment [2], the hAMYR3 EC50 [nM] (cAMP formation, 1321N1 cells expressing hAMYR3) was 5.5 nM.

B7: Compound 44 (peptide)
peptide: {C20 diacid-γGlu}-KDGTATKATQRLANFLQRSSF[Sar]A[NMeI]LSSTETGSNT[Hyp]-NH2
modifications: lactam 2-7
SMILES: CC[C@H](C)[C@@H](C(=O)N[C@@H](CC(C)C)C(=O)N[C@@H](CO)C(=O)N[C@@H](CO)C(=O)N[C@H](C(=O)N[C@@H](CCC(=O)O)C(=O)N[C@H](C(=O)NCC(=O)N[C@@H](CO)C(=O)N[C@@H](CC(N)=O)C(=O)N[C@H](C(=O)N1C[C@H](O)C[C@H]1C(N)=O)[C@@H](C)O)[C@@H](C)O)[C@@H](C)O)N(C)C(=O)[C@H](C)NC(=O)CN(C)C(=O)[C@H](Cc1ccccc1)NC(=O)[C@H](CO)NC(=O)[C@H](CO)NC(=O)[C@H](CCCNC(=N)N)NC(=O)[C@H](CCC(N)=O)NC(=O)[C@H](CC(C)C)NC(=O)[C@H](Cc1ccccc1)NC(=O)[C@H](CC(N)=O)NC(=O)[C@H](C)NC(=O)[C@H](CC(C)C)NC(=O)[C@H](CCCNC(=N)N)NC(=O)[C@H](CCC(N)=O)NC(=O)[C@@H](NC(=O)[C@H](C)NC(=O)[C@@H]1CCCCNC(=O)C[C@H](NC(=O)[C@H](CCCCN)NC(=O)CC[C@H](NC(=O)CCCCCCCCCCCCCCCCCCC(=O)O)C(=O)O)C(=O)NCC(=O)N[C@@H]([C@@H](C)O)C(=O)N[C@@H](C)C(=O)N[C@@H]([C@@H](C)O)C(=O)N1)[C@@H](C)O
In the case of B7, the hCT-R EC50 [nM] (cAMP formation, 1321N1 cells expressing hCT-R) in experiment [1] amounted to 0.02 nM. In experiment [2], the hAMYR3 EC50 [nM] (cAMP formation, 1321N1 cells expressing hAMYR3) came out at 0.009 nM.
